From US20220372138A1 (IOMX THERAPEUTICS, published 2022)

Tests used:
[1] = target: T1, ECD of murine IGSF11, recombinant biotinylated (mouse, UniProt P0C673 23-240); assay: ELISA RFU 0.1-0.5
T1 construct: whole entry named; also called Mouse IGSF11
T1 sequence: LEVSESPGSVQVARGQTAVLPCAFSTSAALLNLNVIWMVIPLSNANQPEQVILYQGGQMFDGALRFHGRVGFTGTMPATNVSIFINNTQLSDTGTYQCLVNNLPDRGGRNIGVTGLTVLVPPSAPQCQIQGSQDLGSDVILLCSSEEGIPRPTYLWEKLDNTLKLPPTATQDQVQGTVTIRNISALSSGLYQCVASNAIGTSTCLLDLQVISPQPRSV

[2] = target: T2, extracellular domain (ECD) of human IGSF11 (VSIG3), recombinant (human, UniProt Q5DX21 23-241); assay: ELISA RFU 0.1-0.5
T2 construct: biotinylated where captured on streptavidin; tags of the reagent not always stated; also called IGSF11 (ECD domain); ECD-IGSF11
T2 sequence: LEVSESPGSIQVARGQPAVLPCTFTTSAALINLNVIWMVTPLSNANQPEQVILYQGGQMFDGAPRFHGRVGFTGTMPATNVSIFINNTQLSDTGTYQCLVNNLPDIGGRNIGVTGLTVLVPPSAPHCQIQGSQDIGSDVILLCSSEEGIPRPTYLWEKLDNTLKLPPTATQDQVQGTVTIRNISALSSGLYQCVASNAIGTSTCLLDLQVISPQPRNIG

[3] = target: T3, full-length ECD of human IGSF11 fused to murine Fc (human, UniProt Q5DX21 23-241); assay: IgG ELISA;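 note: ELISA binding of IgG antibodies to plate-coated IGSF11 Fc-fusion proteins (full-length ECD, IgV or IgC2 domain), detected via HRP-labelled anti-human IgG with TMB development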
T3 construct: also called Fc-fusion IGSF11 ECD; not shown: murine Fc
T3 sequence: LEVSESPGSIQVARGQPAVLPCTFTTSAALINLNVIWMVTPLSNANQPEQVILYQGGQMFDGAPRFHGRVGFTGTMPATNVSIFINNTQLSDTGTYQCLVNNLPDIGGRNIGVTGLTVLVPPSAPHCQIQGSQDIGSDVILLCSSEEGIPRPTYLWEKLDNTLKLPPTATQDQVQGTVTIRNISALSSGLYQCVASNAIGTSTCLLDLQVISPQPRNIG

[4] = target: T4, IgC2 domain of human IGSF11 fused to murine IgG2a Fc (human, UniProt Q5DX21 137-241); assay: IgG ELISA;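 note: ELISA binding of IgG antibodies to plate-coated IGSF11 Fc-fusion proteins (full-length ECD, IgV or IgC2 domain), detected via HRP-labelled anti-human IgG with TMB development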
T4 construct: not shown: murine IgG2a Fc-region
T4 sequence: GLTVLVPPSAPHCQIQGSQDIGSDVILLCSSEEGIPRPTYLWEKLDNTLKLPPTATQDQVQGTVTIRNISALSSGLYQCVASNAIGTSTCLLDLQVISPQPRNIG

[5] = target: T2, extracellular domain (ECD) of human …; assay: ELISA RFU 0.5-1.0

B1: A-031 (scFv format) (scFv, V domains shown)
VH: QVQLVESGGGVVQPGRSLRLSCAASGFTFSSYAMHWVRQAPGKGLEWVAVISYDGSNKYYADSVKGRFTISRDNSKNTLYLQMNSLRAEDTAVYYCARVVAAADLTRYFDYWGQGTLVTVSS
VL: EIVLTQSPGTVSLSPGERATLSCRASQSVPKNYLAWFQQKPGQAPRLVIHTASSRAPGIPDRFTGSGSGTDFTLTISRLEPEDFAVYYCQQYGTSPNTFGQGTKLDIK
notes: scFv
ELISA binding signal (RFU) [1]: 0.1 to 0.5 rfu | ELISA binding signal (RFU) [2]: 0.1 to 0.5 rfu

B2: A-032 (scFv format) (scFv, V domains shown)
VH: QVQLVQSGAEVKKPGASVKVSCKASGYTFTGYYMHWVRQAPGQGLEWMGWMNPNSGNTGYAQKFQGRVTMTRNTSISTAYMELSSLRSEDTAVYYCARGGQQQLVLDDYWGQGTLVTVSS
VL: not shown
ELISA binding signal (RFU) [1]: 0.1 to 0.5 rfu | ELISA binding signal (RFU) [2]: 0.1 to 0.5 rfu

B3: A-033 (scFv format) (scFv, V domains shown)
VH: QVQLVQSGAEVKKPGASVKVSCKASGYTFTSYGISWVRQAPGQGLEWMGWISAYNGNTNYAQKLQGRVTMTTDTSTSTAYMELRSLRSDDTAVYYCARDHSIVGATTFDYWGQGTLVTVSS
VL: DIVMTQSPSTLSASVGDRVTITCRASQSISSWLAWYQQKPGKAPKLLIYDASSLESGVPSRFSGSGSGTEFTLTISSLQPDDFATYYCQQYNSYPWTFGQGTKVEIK
notes: scFv
ELISA binding signal (RFU) [1]: 0.1 to 0.5 rfu | ELISA binding signal (RFU) [2]: 0.1 to 0.5 rfu

B4: A-030 (scFv format) (scFv, V domains shown)
VH: QVQLVQSGAEVKKPGASVKVSCKASGYTFTGYYMHWVRQAPGQGLEWMGWINPNSGNTGYAQKFQGRVTMTRNTSISTAYMELSSLRSEDTAVYYCARGGQQQLVLDDYWGQGTLVTVSS
VL: DIQLTQSPSTLSASVGDRVTITCRASQSIGGWLAWYQHKPGKAPKLLIYAASSLQSGVPSRFSGSGSGTDFTLTISSLQPEDFATYYCRQSYSTPPTFGQGTKVEIK
notes: scFv
ELISA binding signal (RFU) [1]: 0.1 to 0.5 rfu | ELISA binding signal (RFU) [2]: 0.1 to 0.5 rfu

B5: A-036 (scFv format) (scFv, V domains shown)
VH: QVQLVQSGAEVKKPGASVKVSCKASGYTFTGYYMHWVRQAPGQGLEWMGWINPNSGGTNYAQKFQGRVTMTRNTSISTAYMELSSLRSEDTAVYYCARGGQQQLVLDDYWGQGTLVTVSS
VL: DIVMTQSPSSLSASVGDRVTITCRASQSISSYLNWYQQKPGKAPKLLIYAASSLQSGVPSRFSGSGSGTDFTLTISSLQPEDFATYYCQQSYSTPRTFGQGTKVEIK
notes: scFv
ELISA binding signal (RFU) [1]: 0.1 to 0.5 rfu | ELISA binding signal (RFU) [2]: 0.1 to 0.5 rfu

B6: A-037 (scFv format) (scFv, V domains shown)
VH: QVQLVQSGAEVKKPGASVKVSCKASGYTFTGYYMHWVRQAPGQGLEWMGWINPNSGNTGYAQKFQGRVTMTRNTSISTAYMELSSLRSEDTAVYYCARGGQQQLVLDDYWGQGTLVTVSS
VL: NFMLTQPHSVSESPGKTVTISCTGSSGSIASNYVQWYQQRPGSAPTTVIYEDNQRPSGVPDRFSGSIDSSSNSASLTISGLKTEDEADYYCQSYDSSNQRVFGGGTKLTVL
notes: scFv
ELISA binding signal (RFU) [1]: 0.1 to 0.5 rfu | ELISA binding signal (RFU) [2]: 0.1 to 0.5 rfu

B7: C-013 (IgG1 format) (antibody, V domains shown)
VH: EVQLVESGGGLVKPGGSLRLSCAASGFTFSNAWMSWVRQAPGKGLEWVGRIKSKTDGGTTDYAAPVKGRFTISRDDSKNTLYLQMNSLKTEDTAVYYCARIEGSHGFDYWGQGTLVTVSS
VL: SYELTQPPSVSVSPGQTASITCSGDKLGDKYASWYQQKPGQSPVLVIYQDSKRPSGIPERFSGSNSGNTATLTISGTQAEDEADYYCASYLHTPKQFVFGGGTKLTVL
EC50 [3]: 1 to 20 nM | EC50 [4]: < 1 nM

B8: C-014 (IgG1 format) (antibody, V domains shown)
VH: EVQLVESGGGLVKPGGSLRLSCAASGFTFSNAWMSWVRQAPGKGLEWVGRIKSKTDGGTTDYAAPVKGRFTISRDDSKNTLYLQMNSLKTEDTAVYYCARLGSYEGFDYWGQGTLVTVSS
VL: SYELTQPPSVSVSPGQTASITCSGDKLGDKYASWYQQKPGQSPVLVIYQDSKRPSGIPERFSGSNSGNTATLTISGTQAEDEADYYCSTYTVTSSVVVFGGGTKLTVL
EC50 [3]: 1 to 20 nM | EC50 [4]: < 1 nM

B9: C-023 (IgG1 format) (antibody, V domains shown)
VH: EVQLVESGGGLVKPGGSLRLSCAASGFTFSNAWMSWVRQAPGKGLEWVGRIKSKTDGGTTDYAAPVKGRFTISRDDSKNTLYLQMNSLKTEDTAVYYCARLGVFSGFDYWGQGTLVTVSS
VL: SYELTQPPSVSVSPGQTASITCSGDKLGDKYASWYQQKPGQSPVLVIYQDSKRPSGIPERFSGSNSGNTATLTISGTQAEDEADYYCHTWTHHSLAVVFGGGTKLTVL
EC50 [3]: < 1 nM | EC50 [4]: < 1 nM

B10: A-014 (scFv format) (scFv, V domains shown)
VH: QVQLVQSGAEVKKPGASVKVSCKASGYTFNDYYIHWVRQAPGQGLEWMGWFNPSTGGANYAQKFQGRVTMTRDTSISTAYLEVSSLRSDDTAVYYCARGNSPDLDYWGQGTLVTVSS
VL: DIQMTQSPDSLTVSLGERATINCKSSQSLLHSSNNKNYLAWYQQRPGQPPKLLIYWASTRQSGVPDRFSGSGSGTDFTLTINSLQADDMAVYYCQQYYTTTPNTFGQGTKLEIK
notes: scFv
ELISA binding signal (RFU) [5]: 0.5 to 1 rfu | ELISA binding signal (RFU) [1]: 0.1 to 0.5 rfu

B11: A-017 (scFv format) (scFv, V domains shown)
VH: QVQLVQSGAEVKKPGASVKVSCKASGYTFTGYYMHWVRQAPGQGLEWMGWINPNSGNTGYAQKFQGRVTMTRNTSISTAYMELSSLRSEDTAVYYCARGGQQQLVLDDYWGQGTLVTVSS
VL: DIVLTQSPASLSASVGDRITITCQASQDIRHHLNWFQHKPGKAPKLLISDSSNLETGVPSRFSGSGSGTDFSFTISRLQPEDIATYYCQQYDSLPRTFGQGTKLEIK
notes: scFv
ELISA binding signal (RFU) [5]: 0.5 to 1 rfu | ELISA binding signal (RFU) [1]: 0.1 to 0.5 rfu

B12: C-002 (IgG1 format) (antibody, V domains shown)
VH: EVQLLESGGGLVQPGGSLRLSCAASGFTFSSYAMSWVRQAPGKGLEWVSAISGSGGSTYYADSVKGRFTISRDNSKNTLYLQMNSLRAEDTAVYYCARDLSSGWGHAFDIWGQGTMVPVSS
VL: ASVLTQPPSVSAAPGQKVTISCSGSSSNIGNNYVSWYQQLPGTAPKLLIYDNNKRPSGIPDRFSGSKSGTSATLGITGLQAEDEADYYCLSYTTSEHHLVFGGGTKLTVL
EC50 [3]: 1 to 20 nM | EC50 [4]: < 1 nM

B13: C-006 (IgG1 format) (antibody, V domains shown)
VH: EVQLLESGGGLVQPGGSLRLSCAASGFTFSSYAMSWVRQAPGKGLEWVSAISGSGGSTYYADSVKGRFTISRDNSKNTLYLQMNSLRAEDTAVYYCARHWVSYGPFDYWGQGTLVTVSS
VL: DIQMTQSPSSLSASVGDRVTITCRASQSISSYLNWYQQKPGKAPKLLIYAASSLQSGVPSRFSGSGSGTDFTLTISSLQPEDFATYYCQQSHQSPPITFGQGTKVEIK
EC50 [3]: 1 to 20 nM | EC50 [4]: < 1 nM

B14: C-010 (IgG1 format) (antibody, V domains shown)
VH: QVQLVQSGAEVKKPGSSVKVSCKASGGTFSSYAISWVRQAPGQGLEWMGGIIPIFGTANYAQKFQGRVTITADESTSTAYMELSSLRSEDTAVYYCARGYGEYYPAFDVWGQGTLVTVSS
VL: SYELTQPPSVSVSPGQTASITCSGDKLGDKYASWYQQKPGQSPVLVIYQDSKRPSGIPERFSGSNSGNTATLTISGTQAEDEADYYCASYAHTHSTWVFGGGTKLTVL
EC50 [3]: 20 to 100 nM | EC50 [4]: 1 to 20 nM

B15: C-011 (IgG1 format) (antibody, V domains shown)
VH: QVQLVQSGAEVKKPGSSVKVSCKASGGTFSSYAISWVRQAPGQGLEWMGGIIPIFGTANYAQKFQGRVTITADESTSTAYMELSSLRSEDTAVYYCARHSTPSFLQYWGQGTLVTVSS
VL: SYELTQPPSVSVSPGQTASITCSGDKLGDKYASWYQQKPGQSPVLVIYQDSKRPSGIPERFSGSNSGNTATLTISGTQAEDEADYYCAVYPAHASARWVFGGGTKLTVL
EC50 [3]: < 1 nM | EC50 [4]: < 1 nM

B16: C-015 (IgG1 format) (antibody, V domains shown)
VH: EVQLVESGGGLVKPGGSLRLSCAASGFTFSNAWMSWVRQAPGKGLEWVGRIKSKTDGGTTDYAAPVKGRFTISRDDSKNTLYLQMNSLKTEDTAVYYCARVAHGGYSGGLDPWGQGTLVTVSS
VL: SYELTQPPSVSVSPGQTASITCSGDKLGDKYASWYQQKPGQSPVLVIYQDSKRPSGIPERFSGSNSGNTATLTISGTQAEDEADYYCSSTGTAHTLAVFGGGTKLTVL
EC50 [3]: 20 to 100 nM | EC50 [4]: 1 to 20 nM

B17: C-018 (IgG1 format) (antibody, V domains shown)
VH: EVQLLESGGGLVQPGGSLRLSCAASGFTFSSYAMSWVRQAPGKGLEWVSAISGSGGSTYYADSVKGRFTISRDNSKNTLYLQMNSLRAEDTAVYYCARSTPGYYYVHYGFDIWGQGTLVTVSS
VL: SYELTQPPSVSVSPGQTASITCSGDKLGDKYASWYQQKPGQSPVLVIYQDSKRPSGIPERFSGSNSGNTATLTISGTQAEDEADYYCQAWSTSTHSWVFGGGTKLTVL
EC50 [3]: 1 to 20 nM | EC50 [4]: < 1 nM

B18: C-021 (IgG1 format) (antibody, V domains shown)
VH: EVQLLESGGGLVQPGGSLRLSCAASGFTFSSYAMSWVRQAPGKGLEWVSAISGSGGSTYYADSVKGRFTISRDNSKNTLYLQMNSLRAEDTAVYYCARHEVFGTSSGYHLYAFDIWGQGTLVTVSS
VL: DIQMTQSPSSLSASVGDRVTITCRASQSISSYLNWYQQKPGKAPKLLIYAASSLQSGVPSRFSGSGSGTDFTLTISSLQPEDFATYYCQQWSGLPLTFGQGTKVEIK
EC50 [4]: < 1 nM

B19: C-022 (IgG1 format) (antibody, V domains shown)
VH: EVQLLESGGGLVQPGGSLRLSCAASGFTFSSYAMSWVRQAPGKGLEWVSAISGSGGSTYYADSVKGRFTISRDNSKNTLYLQMNSLRAEDTAAYYCARMAAGASWGTFDYWSQGTLVTVSS
VL: DIQMTQSPSSLSASVGDRVTITCRASQSISSYLNWYQQKPGKAPKLLIYAASSLQSGVPSRFSGSGSGTDFTLTISSLQPEDFATYYCQQRSGSPLTFGQGTKVEIK
EC50 [3]: 1 to 20 nM | EC50 [4]: 1 to 20 nM

B20: A-021 (scFv format) (scFv, V domains shown)
VH: QVQLVQSGAEVKKPGASVKVSCKASGYTFTSYGISWVRQAPGQGLEWMGWISAYNGNTNYAQKLQGRVTMTTDTSTSTAYMELRSLRSDDTAVYYCARVPAWSGQFDYWGQGTLVTVSS
VL: QSALTQPASVSGSPGQSITISCTGTSSDVGGYNYVSWYQQHPGKAPKLMIYEVTNRPSGVSDRFSGSKSANTASLTISELQAEDEAVYYCNSYTSGPTYVLFGGGTQLTVL
notes: scFv
ELISA binding signal (RFU) [5]: 0.5 to 1 rfu | ELISA binding signal (RFU) [1]: 0.1 to 0.5 rfu

B21: A-023 (scFv format) (scFv, V domains shown)
VH: QVQLVQSGAEVKKPGSSVKVSCKASGGTFSSYAISWVRQAPGQGLEWMGGIIPIFGTANYAQKFQGRVTITADESTSTAYMELSSLRSEDTAVYYCARPKYSSGWFYYYGMDVWGQGTTVTVSS
VL: QSVLTQPPSVSAAPGQKVTISCSGSSSNIGNNYVSWYQQLPGTAPKLLIYDNNKRPSGIPDRFSGSKSGTSATLGITGLQTGDEADYYCGTWDSSLSVVFGGGTKLTVL
notes: scFv
ELISA binding signal (RFU) [5]: 0.5 to 1 rfu | ELISA binding signal (RFU) [1]: 0.1 to 0.5 rfu

B22: A-024 (scFv format) (scFv, V domains shown)
VH: QMQLVQSGAEVKKPGSSVKVSCKASGGTFSSYAISWVRQAPGQGLEWMGWISAYNGNTNYAQKLQGRVTMTTDTSTSTAYMELRSLRSDDTAVYYCASLGSYGYTGAFDIWGQGTMATVSS
VL: QSALTQPASVSGSPGQSITISCTGTSSDVGGYNYVSWYQQHPGKAPKLMIYEVSNRPSGVSNRFSGSKSGNTASLTISGLQAEDEADYYCSSYTSSSTLVVFGGGTKLTVL
ELISA binding signal (RFU) [5]: 0.5 to 1 rfu | ELISA binding signal (RFU) [1]: 0.1 to 0.5 rfu
